For two substances, dimerization grade, FRET efficiency Eτ and donor (eGFP) lifetime; donor-only 2.13 ns results are on record in PMC10667928.

The target in assay [1] is Xiphophorus multilineatus melanocortin 4 receptor, mutant B2 allele (Mc4r B2) (X. multilineatus). As to the kind of experiment: FRET or BRET; FRET-FLIM data of the fixed cells sorted by stoichiometry (<0.3, 0.3-0.5, 0.5-0.7, >0.7); dimerization grade by equation (8): β1AR as monomer baseline, CD28 at stoichiometry <0.3 as 100%. In general terms: In BRET a luciferase serves as donor, and the signal depends on an acceptor being close.

Assay [2] has as its target Xiphophorus multilineatus melanocortin 4 receptor, wild-type A allele (Mc4r A) (X. multilineatus). The assay is described as above.
The target in assay [3] is Xiphophorus multilineatus melanocortin 4 receptor, mutant B1 allele (Mc4r B1) (X. multilineatus). Described as above.
The target of assay [4] is Xiphophorus multilineatus melanocortin 4 receptor, mutant B2 allele (Mc4r B2) (X. multilineatus). In words: FRET or BRET; FRET-FLIM (pulsed interleaved excitation) on fixed HEK293T cells, basal or apical membrane; first-named protomer with C-terminal eGFP (donor, written as binder), second with C-terminal mCherry (acceptor, written as target); donor/acceptor ratio 1:5 at transfection; lifetime-based FRET efficiency Eτ against donor-only samples.

In assay [5] the target is Xiphophorus multilineatus melanocortin 4 receptor, wild-type A allele (Mc4r A) (X. multilineatus). The description is as above.
The target of assay [6] is Xiphophorus multilineatus melanocortin 4 receptor, mutant B1 allele (Mc4r B1) (X. multilineatus). The description is as above.
The target of assay [7] is Xiphophorus multilineatus melanocortin 4 receptor, wild-type A allele (Mc4r A) (X. multilineatus). In words: FRET or BRET; FRET-FLIM (pulsed interleaved excitation) on fixed HEK293T cells, basal or apical membrane; first-named protomer with C-terminal eGFP (donor, written as binder), second with C-terminal mCherry (acceptor, written as target); donor/acceptor ratio 1:1 at transfection; lifetime-based FRET efficiency Eτ against donor-only samples.

In assay [8] the target is Xiphophorus multilineatus melanocortin 4 receptor, mutant B1 allele (Mc4r B1) (X. multilineatus). Described as above.
Assay [9] has as its target human chimeric MC4R chim7 (named Mut in this study) (human) (UniProt P32245). In words: FRET or BRET; FRET-FLIM (pulsed interleaved excitation) on fixed HEK293T cells, basal or apical membrane; first-named protomer with C-terminal eGFP (donor, written as binder), second with C-terminal mCherry (acceptor, written as target); donor/acceptor ratio 1:5 at transfection; lifetime-based FRET efficiency Eτ against donor-only samples.

“Xiphophorus multilineatus melanocortin 4 receptor, wild-type A allele (Mc4r A)”: the dimerization grade at stoichiometry 0.3-0.5 stood at 28% in [1], 26% in [2] and 28% in assay [3]. Further, the dimerization grade at stoichiometry <0.3 in [1] came to 52%; in assay [2], 76%; in [3], 52%. For the same substance, the FRET efficiency Eτ in assay [4] worked out at 23.8%; in [5], 26.1%; in [6], 21.6%; in assay [7], 12.7%; in [8] it was 15.4%. Also, the donor (eGFP) lifetime; donor-only 2.13 ns in [5] was 1.57 ns; in [7], 1.85 ns.

In the case of “human MC4R wild-type (from UniProt P32245 1-332) (receptor)”, the FRET efficiency Eτ in assay [9] came out at 19.6%.
